# Test results as given in paper PMC11783328 (Science immunology, 2024).
# B1: gl-3BNC60 (antibody, V domains shown)
# VH: not shown
# VL: DIQMTQSPSSLSASVGDRVTITCQASQDISNYLNWYQQKPGKAPKLLIYDASNLETGVPSRFSGSGSGTDFTFTISSLQPEDIATYYCQQYEFIGPGTKVDIK
# notes: also called 3BNC60 germline; inferred germline precursor of 3BNC60
# Biological target: T1, BG505 SOSIP.v4.1-GT1.1 (HIV-1 (isolate BG505), UniProt Q2N0S6)
# T1 construct: copies: 3 + 3
# Assay: SPR; Biacore 3000; His-tagged GT1 and GT1.1 trimers captured in parallel flow cells; IgG injected from 1 uM in two- or four-fold dilutions; association 300 s, dissociation 600 s, 50 uL/min; bivalent model (first- and second-point interaction; kon2 and KD2 converted from RU units)
# Details: both partners purified
binder,measurement,value
B1,stoichiometry N,1.1 paratopes per trimer
